The values that follow come from PMC5668318.

In the experiment the target is 3XFLAG-Kenny LIR motif mutant (F7A/L10A) (Drosophila) (UniProt Q9GYV5). Put plainly: co-IP; anti-FLAG M2-agarose immunoprecipitation from lysates of transfected S2R+ cells, 4 °C overnight, elution with 3XFLAG peptide, blot for GFP.
Chain of UniProt Q9GYV5 (Q9GYV5 whole entry F7A/L10A): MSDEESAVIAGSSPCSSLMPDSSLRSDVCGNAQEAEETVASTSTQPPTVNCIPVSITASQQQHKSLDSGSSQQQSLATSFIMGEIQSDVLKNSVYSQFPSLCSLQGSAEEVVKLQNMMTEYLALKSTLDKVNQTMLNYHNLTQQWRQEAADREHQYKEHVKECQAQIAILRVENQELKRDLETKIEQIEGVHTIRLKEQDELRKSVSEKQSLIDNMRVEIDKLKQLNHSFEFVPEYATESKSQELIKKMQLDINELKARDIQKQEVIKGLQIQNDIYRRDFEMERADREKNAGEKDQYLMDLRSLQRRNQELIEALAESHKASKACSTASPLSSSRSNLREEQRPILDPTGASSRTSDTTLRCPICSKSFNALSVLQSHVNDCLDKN

In the case of “eGFP-Atg8a (from UniProt Q9W2S2 1-121) (natural protein)”, the percent decrease in the interaction against wild-type 3XFLAG-Kenny turned out to be 62%.
